First the molecules themselves.
B1: peptide HD2 (from tick evasin EVA4) / CCL18 (biotinylated, synthetic) (parent complex)
chain 1: EEDDYTAYAPLTCYFT
chain 2: AQVGTNKELCCLVYTSWQIPQKFIVDYSETSPQCPKPGVILLTKRGRQICADPNKKWVQKYISDLKLNA

In this experiment the parent is B1.
Consider chain 1 EEDDYTAHAPLTCYFT [chain 1 Y8H], for which the enrichment is -6.18 log2 (difference from the parental peptide).
In the case of chain 1 EEDDYTASAPLTCYFT [chain 1 Y8S] it was -2.05 log2 (difference from the parental peptide).
For chain 1 EEDDYTAVAPLTCYFT [chain 1 Y8V] the value was -2.87 log2 (difference from the parental peptide).
Turning to chain 1 EEDDYTAQAPLTCYFT [chain 1 Y8Q], the enrichment is -6.56 log2 (difference from the parental peptide).
In the case of chain 1 EEDDYTAGAPLTCYFT [chain 1 Y8G] it was -6.32 log2 (difference from the parental peptide); in that of chain 1 EEDDYTAPAPLTCYFT [chain 1 Y8P], -3.81 log2 (difference from the parental peptide).
Consider chain 1 EEDDYTADAPLTCYFT [chain 1 Y8D], for which the enrichment was -6.74 log2 (difference from the parental peptide).
In the case of chain 1 EEDDYTAFAPLTCYFT [chain 1 Y8F] it was 2.01 log2 (difference from the parental peptide).
Take chain 1 EEDDYTAYAPLTCVFT [chain 1 Y14V]: the enrichment is -1.51 log2 (difference from the parental peptide).
On to chain 1 EEDDYTAYAPLTCEFT [chain 1 Y14E], for which the enrichment was -4.21 log2 (difference from the parental peptide).
For chain 1 EEDDYTAYAPLTCCFT [chain 1 Y14C], the enrichment is -8.51 log2 (difference from the parental peptide).
As for chain 1 EEDDYTAYAPLTCKFT [chain 1 Y14K], the enrichment is -6.36 log2 (difference from the parental peptide).
For chain 1 EEDDYTAYAPLTCMFT [chain 1 Y14M] the value was -2.78 log2 (difference from the parental peptide); for chain 1 EEDDYTAYAPLTCSFT [chain 1 Y14S], -3.46 log2 (difference from the parental peptide).
In the case of chain 1 EEDDYTAYAPLTCWFT [chain 1 Y14W] it was -1.23 log2 (difference from the parental peptide); in that of chain 1 EEDDYTAYAPLTCFFT [chain 1 Y14F], 0.0351 log2 (difference from the parental peptide); in that of chain 1 EEDDYTAYAPLTIYFT [chain 1 C13I], -5.57 log2 (difference from the parental peptide).
For chain 1 EEDDYTAYAPLTRYFT [chain 1 C13R] the value was -9.16 log2 (difference from the parental peptide); for chain 1 EEDDYTAYAPLTTYFT [chain 1 C13T], -9.42 log2 (difference from the parental peptide).
In the case of chain 1 EEDDYTAYAPLTNYFT [chain 1 C13N], the enrichment was -8.4 log2 (difference from the parental peptide).
In the case of chain 1 EEDDYTAYAPLTQYFT [chain 1 C13Q] it was -9.57 log2 (difference from the parental peptide); in that of chain 1 EEDDYTYYAPLTCYFT [chain 1 A7Y], -0.717 log2 (difference from the parental peptide).
For chain 1 EEDDYTDYAPLTCYFT [chain 1 A7D] the value was 1.19 log2 (difference from the parental peptide).
In the case of chain 1 EEDDYTIYAPLTCYFT [chain 1 A7I] it was -0.489 log2 (difference from the parental peptide).
Regarding chain 1 EEDDYTMYAPLTCYFT [chain 1 A7M], the enrichment is 2.23 log2 (difference from the parental peptide).
For chain 1 EEDDYTQYAPLTCYFT [chain 1 A7Q] the value was 2.05 log2 (difference from the parental peptide); for chain 1 EEDDYTKYAPLTCYFT [chain 1 A7K], 1.7 log2 (difference from the parental peptide); for chain 1 EEDDYTLYAPLTCYFT [chain 1 A7L], 0.189 log2 (difference from the parental peptide).
Take chain 1 EEDDYTTYAPLTCYFT [chain 1 A7T]: the enrichment was -0.452 log2 (difference from the parental peptide).
On to chain 1 EEDDYTAYNPLTCYFT [chain 1 A9N], for which the enrichment is -5.05 log2 (difference from the parental peptide).
For chain 1 EEDDYTAYQPLTCYFT [chain 1 A9Q] the value was -0.732 log2 (difference from the parental peptide).
In the case of chain 1 EEDDYTAYKPLTCYFT [chain 1 A9K] it was -2.18 log2 (difference from the parental peptide); in that of chain 1 EEDDYTAYMPLTCYFT [chain 1 A9M], -4.18 log2 (difference from the parental peptide).
In the case of chain 1 EEDDYTAYFPLTCYFT [chain 1 A9F] it was -8.36 log2 (difference from the parental peptide).
Consider chain 1 EEDDYTAYCPLTCYFT [chain 1 A9C], for which the enrichment was -10.3 log2 (difference from the parental peptide).
For the variant chain 1 EEDDYTAYIPLTCYFT [chain 1 A9I], the enrichment is -10.2 log2 (difference from the parental peptide).
Regarding chain 1 EEDDYTAYLPLTCYFT [chain 1 A9L], the enrichment is -7.81 log2 (difference from the parental peptide).
Regarding chain 1 NEDDYTAYAPLTCYFT [chain 1 E1N], the enrichment is -0.496 log2 (difference from the parental peptide).
For chain 1 MEDDYTAYAPLTCYFT [chain 1 E1M] the value was -0.0267 log2 (difference from the parental peptide); for chain 1 PEDDYTAYAPLTCYFT [chain 1 E1P], -2.16 log2 (difference from the parental peptide); for chain 1 YEDDYTAYAPLTCYFT [chain 1 E1Y], -1.67 log2 (difference from the parental peptide).
In the case of chain 1 LEDDYTAYAPLTCYFT [chain 1 E1L], the enrichment is -1.91 log2 (difference from the parental peptide).
Take chain 1 IEDDYTAYAPLTCYFT [chain 1 E1I]: the enrichment was -1.17 log2 (difference from the parental peptide).
With chain 1 REDDYTAYAPLTCYFT [chain 1 E1R], the enrichment was -3.04 log2 (difference from the parental peptide).
With chain 1 KEDDYTAYAPLTCYFT [chain 1 E1K], the enrichment is -3.68 log2 (difference from the parental peptide).
Regarding chain 1 EEDDYTAYAPATCYFT [chain 1 L11A], the enrichment is 0.458 log2 (difference from the parental peptide).
For chain 1 EEDDYTAYAPCTCYFT [chain 1 L11C] the value was 1.6 log2 (difference from the parental peptide); for chain 1 EEDDYTAYAPMTCYFT [chain 1 L11M], 2.39 log2 (difference from the parental peptide); for chain 1 EEDDYTAYAPKTCYFT [chain 1 L11K], -1.3 log2 (difference from the parental peptide).
In the case of chain 1 EEDDYTAYAPSTCYFT [chain 1 L11S], the enrichment was -0.148 log2 (difference from the parental peptide).
For chain 1 EEDDYTAYAPRTCYFT [chain 1 L11R] the value was -0.679 log2 (difference from the parental peptide); for chain 1 EEDDYTAYAPNTCYFT [chain 1 L11N], -3.89 log2 (difference from the parental peptide); for chain 1 EEDDYRAYAPLTCYFT [chain 1 T6R], 0.592 log2 (difference from the parental peptide).
With chain 1 EEDDYSAYAPLTCYFT [chain 1 T6S], the enrichment is 2.9 log2 (difference from the parental peptide).
For chain 1 EEDDYFAYAPLTCYFT [chain 1 T6F] the value was -2.21 log2 (difference from the parental peptide); for chain 1 EEDDYAAYAPLTCYFT [chain 1 T6A], 1.9 log2 (difference from the parental peptide).
For chain 1 EEDDYIAYAPLTCYFT [chain 1 T6I] the value was -4.4 log2 (difference from the parental peptide); for chain 1 EEDDYWAYAPLTCYFT [chain 1 T6W], 0.931 log2 (difference from the parental peptide); for chain 1 EEDDYTAYAPLTCYFA [chain 1 T16A], 1.23 log2 (difference from the parental peptide).
As to chain 1 EEDDYTAYAPLTCYFN [chain 1 T16N], the enrichment was 0.14 log2 (difference from the parental peptide).
Regarding chain 1 EEDDYTAYAPLTCYFQ [chain 1 T16Q], the enrichment is 1.05 log2 (difference from the parental peptide).
For chain 1 EEDDYTAYAPLTCYFR [chain 1 T16R] the value was -1.37 log2 (difference from the parental peptide); for chain 1 EEDDYTAYAPLTCYFG [chain 1 T16G], 1.32 log2 (difference from the parental peptide); for chain 1 EEDDYTAYAPLTCYFL [chain 1 T16L], 0.179 log2 (difference from the parental peptide).
As for chain 1 EEDDYTAYAPLTCYFH [chain 1 T16H], the enrichment is -0.148 log2 (difference from the parental peptide).
Consider chain 1 EEDDYTAYAPLTCYFK [chain 1 T16K], for which the enrichment is -0.439 log2 (difference from the parental peptide).
For chain 1 EEDDQTAYAPLTCYFT [chain 1 Y5Q] the value was -2.39 log2 (difference from the parental peptide); for chain 1 EEDDITAYAPLTCYFT [chain 1 Y5I], -3.26 log2 (difference from the parental peptide).
Take chain 1 EEDDMTAYAPLTCYFT [chain 1 Y5M]: the enrichment was -0.412 log2 (difference from the parental peptide).
In the case of chain 1 EEDDNTAYAPLTCYFT [chain 1 Y5N] it was -4 log2 (difference from the parental peptide).
In the case of chain 1 EEDDATAYAPLTCYFT [chain 1 Y5A] it was -4.1 log2 (difference from the parental peptide).
In the case of chain 1 EEDDRTAYAPLTCYFT [chain 1 Y5R] it was -6.25 log2 (difference from the parental peptide); in that of chain 1 EEDDDTAYAPLTCYFT [chain 1 Y5D], -3.92 log2 (difference from the parental peptide).
Regarding chain 1 EEDDLTAYAPLTCYFT [chain 1 Y5L], the enrichment was -0.851 log2 (difference from the parental peptide).
On to chain 1 EEDDVTAYAPLTCYFT [chain 1 Y5V], for which the enrichment is -3.13 log2 (difference from the parental peptide).
For chain 1 EEDDYTAYAPLTCYCT [chain 1 F15C] the value was -5.58 log2 (difference from the parental peptide).
Consider chain 1 EEDDYTAYAPLTCYPT [chain 1 F15P], for which the enrichment was -0.512 log2 (difference from the parental peptide).
In the case of chain 1 EEDDYTAYAPLTCYLT [chain 1 F15L] it was 0.128 log2 (difference from the parental peptide); in that of chain 1 EEDDYTAYAPLTCYQT [chain 1 F15Q], -0.376 log2 (difference from the parental peptide).
In the case of chain 1 EERDYTAYAPLTCYFT [chain 1 D3R] it was -3.26 log2 (difference from the parental peptide); in that of chain 1 EEGDYTAYAPLTCYFT [chain 1 D3G], -0.0296 log2 (difference from the parental peptide); in that of chain 1 EELDYTAYAPLTCYFT [chain 1 D3L], -2.02 log2 (difference from the parental peptide).
Take chain 1 EEIDYTAYAPLTCYFT [chain 1 D3I]: the enrichment was -2.12 log2 (difference from the parental peptide).
For chain 1 EEEDYTAYAPLTCYFT [chain 1 D3E] the value was 0.978 log2 (difference from the parental peptide); for chain 1 EEADYTAYAPLTCYFT [chain 1 D3A], -0.703 log2 (difference from the parental peptide).
As for chain 1 EVDDYTAYAPLTCYFT [chain 1 E2V], the enrichment was -1.58 log2 (difference from the parental peptide).
As to chain 1 EKDDYTAYAPLTCYFT [chain 1 E2K], the enrichment is -3.34 log2 (difference from the parental peptide).
For chain 1 ESDDYTAYAPLTCYFT [chain 1 E2S] the value was -2.49 log2 (difference from the parental peptide); for chain 1 ENDDYTAYAPLTCYFT [chain 1 E2N], -3.02 log2 (difference from the parental peptide); for chain 1 ERDDYTAYAPLTCYFT [chain 1 E2R], -3.87 log2 (difference from the parental peptide).
In the case of chain 1 EDDDYTAYAPLTCYFT [chain 1 E2D] it was -0.0115 log2 (difference from the parental peptide); in that of chain 1 EEDDYTAYAPLLCYFT [chain 1 T12L], 0.858 log2 (difference from the parental peptide); in that of chain 1 EEDDYTAYAPLACYFT [chain 1 T12A], -0.729 log2 (difference from the parental peptide).
Take chain 1 EEDDYTAYAPLECYFT [chain 1 T12E]: the enrichment is -0.867 log2 (difference from the parental peptide).
For chain 1 EEDDYTAYAPLYCYFT [chain 1 T12Y] the value was 0.868 log2 (difference from the parental peptide).
For chain 1 EEDDYTAYAPLRCYFT [chain 1 T12R] the value was -2.9 log2 (difference from the parental peptide); for chain 1 EEDDYTAYAPLCCYFT [chain 1 T12C], -7.25 log2 (difference from the parental peptide); for chain 1 EEDDYTAYAPLFCYFT [chain 1 T12F], -0.316 log2 (difference from the parental peptide).
Regarding chain 1 EEDDYTAYAGLTCYFT [chain 1 P10G], the enrichment is -8.83 log2 (difference from the parental peptide).
As for chain 1 EEDDYTAYAVLTCYFT [chain 1 P10V], the enrichment is -8.99 log2 (difference from the parental peptide).
For chain 1 EEDDYTAYADLTCYFT [chain 1 P10D] the value was -2.21 log2 (difference from the parental peptide); for chain 1 EEDDYTAYAFLTCYFT [chain 1 P10F], -9.61 log2 (difference from the parental peptide); for chain 1 EEDDYTAYALLTCYFT [chain 1 P10L], -9.7 log2 (difference from the parental peptide).
For chain 1 EEDDYTAYANLTCYFT [chain 1 P10N] the value was -8.22 log2 (difference from the parental peptide); for chain 1 EEDSYTAYAPLTCYFT [chain 1 D4S], -2.31 log2 (difference from the parental peptide); for chain 1 EEDVYTAYAPLTCYFT [chain 1 D4V], -3.19 log2 (difference from the parental peptide).
For chain 1 EEDRYTAYAPLTCYFT [chain 1 D4R] the value was -2.64 log2 (difference from the parental peptide); for chain 1 EEDIYTAYAPLTCYFT [chain 1 D4I], -2.18 log2 (difference from the parental peptide).
For chain 1 EEDGYTAYAPLTCYFT [chain 1 D4G], the enrichment is -2.83 log2 (difference from the parental peptide).
For chain 1 EEDQYTAYAPLTCYFT [chain 1 D4Q] the value was -1.98 log2 (difference from the parental peptide).
For chain 1 EEDPYTAYAPLTCYFT [chain 1 D4P] the value was -1.34 log2 (difference from the parental peptide).
For chain 1 EEDKYTAYAPLTCYFT [chain 1 D4K] the value was -2.75 log2 (difference from the parental peptide).

The values above are taken from PMC11969024 (2025).
